What all share (assay): flow cytometry, CHO-K1; sub-column 2 of 2
One experiment addresses T1, D43A.
T1 construct: also called hCD27 D43A
T1 receptor: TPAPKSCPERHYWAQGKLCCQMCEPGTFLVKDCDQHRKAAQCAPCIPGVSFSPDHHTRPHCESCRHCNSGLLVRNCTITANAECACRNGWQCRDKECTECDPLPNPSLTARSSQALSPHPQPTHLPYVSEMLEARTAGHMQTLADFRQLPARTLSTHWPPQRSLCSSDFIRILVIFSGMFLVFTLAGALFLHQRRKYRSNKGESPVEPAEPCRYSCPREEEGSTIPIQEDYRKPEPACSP

For another experiment, the target named is T2, S63A.
T2 construct: also called hCD27 S63A
T2 receptor: T1 receptor with A43D, S63A

A further experiment deals with T3, Q41A.
T3 construct: also called hCD27 Q41A
T3 receptor: T1 receptor with Q41A, A43D

The target of the next experiment is T4, G89A.
T4 construct: also called hCD27 G89A
T4 receptor: T1 receptor with A43D, G89A

For another experiment, the target named is T5, D32A.
T5 construct: also called hCD27 D32A
T5 receptor: T1 receptor with D32A, A43D

The next experiment has as its target T6, K38A.
T6 construct: also called hCD27 K38A
T6 receptor: T1 receptor with K38A, A43D

Another experiment has as its target T7, H36A.
T7 construct: also called hCD27 H36A
T7 receptor: T1 receptor with H36A, A43D

In a further experiment the target is T8, R10A.
T8 construct: also called hCD27 R10A
T8 receptor: T1 receptor with R10A, A43D

The target in the next experiment is T9, P44A.
T9 construct: also called hCD27 P44A
T9 receptor: T1 receptor with A43D, P44A

Another experiment concerns the target T10, P8A.
T10 construct: also called hCD27 P8A
T10 receptor: T1 receptor with P8A, A43D

Changes are numbered by the printed parent chain.

As for 1A4 (mouse IgG1) (antibody), the % of WT hCD27 binding (geo mean FITC) with D43A stood at 93.4%; with S63A, 163%; with Q41A, 76.1%; in the experiment with G89A, 81.8%; with D32A it was 8.7%; in the experiment with K38A it was 97.7%. Moreover, the % of WT hCD27 binding (geo mean FITC) in the experiment with H36A was 85.2%; in the experiment with R10A, 113%; with P44A it was 90.5%; with P8A it was 79.1%.

Take 9F4 (mouse IgG2a) (antibody): the % of WT hCD27 binding (geo mean FITC) with D43A is 92.5%; with S63A it was 149%; in the experiment with Q41A, 71.3%; with G89A, 77.5%; with D32A, 66.3%; with K38A it was 31.6%. Further, the % of WT hCD27 binding (geo mean FITC) turned out to be 66.5% with H36A, 99% with R10A, 91.7% with P44A and 62.2% in the experiment with P8A.

B1: Antibody hCD27.131A (mouse parental 131A) (antibody, V domains shown)
VH: QIQLVQSGPELKKPGETVKISCKASGYTFTNYGMNWVKQAPGKGLKWMGWINTNTGEPTYAEEFKGRFAFSLETSATTAYLQINNLKNEDTATYFCAREGDAMDYWGQGTSVTVSS
VL: QIVLTQSPAIMSASPGEKVTMTCSASSSVSYMHWYQQKSGTSPKRWIYDTSKLASGVPARFSGSGSGTSYSLTISSMEAEDAATYYCQQWNSYPFTFGSGTKLEIK
notes: mouse IgG1; also called mouse hCD27.131A
In the case of B1, the “% of WT hCD27 binding (geo mean FITC)” value stood at 96.2% with D43A; 141% with S63A; 80.5% with Q41A; 82.9% with G89A; 62.1% with D32A; 11.8% in the experiment with K38A. Besides, the “% of WT hCD27 binding (geo mean FITC)” value worked out at 10.8% in the experiment with H36A, 108% with R10A, 91% with P44A and 15.9% with P8A.
